Measurements as given in paper doi:10.1101/2023.09.29.560221 (bioRxiv, 2023).

T1: human Topoisomerase I (human, UniProt P11387 1-765)
T1 sequence: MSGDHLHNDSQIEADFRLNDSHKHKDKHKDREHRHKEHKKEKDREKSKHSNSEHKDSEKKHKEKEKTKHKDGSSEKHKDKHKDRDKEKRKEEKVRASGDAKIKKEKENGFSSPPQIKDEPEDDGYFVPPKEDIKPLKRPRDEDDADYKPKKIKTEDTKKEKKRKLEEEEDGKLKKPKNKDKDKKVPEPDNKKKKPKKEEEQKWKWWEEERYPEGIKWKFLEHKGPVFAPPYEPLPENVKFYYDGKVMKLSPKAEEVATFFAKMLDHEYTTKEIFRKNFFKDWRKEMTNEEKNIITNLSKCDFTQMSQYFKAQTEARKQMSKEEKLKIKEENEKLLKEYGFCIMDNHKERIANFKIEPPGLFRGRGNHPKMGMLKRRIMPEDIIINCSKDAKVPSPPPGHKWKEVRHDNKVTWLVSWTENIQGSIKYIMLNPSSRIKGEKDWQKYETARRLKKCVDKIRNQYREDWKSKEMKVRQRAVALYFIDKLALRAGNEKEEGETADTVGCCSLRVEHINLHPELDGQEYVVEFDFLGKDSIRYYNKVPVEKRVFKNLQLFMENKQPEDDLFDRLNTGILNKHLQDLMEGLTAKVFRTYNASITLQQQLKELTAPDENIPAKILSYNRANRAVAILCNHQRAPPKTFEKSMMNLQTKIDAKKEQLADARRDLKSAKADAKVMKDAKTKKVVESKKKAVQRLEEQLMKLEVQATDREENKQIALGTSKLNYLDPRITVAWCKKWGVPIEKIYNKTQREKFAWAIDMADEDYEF


Legend:
human Topoisomerase I = target: T1, human Topoisomerase I; assay: ELISA
native gel or EMSA = target: the molecule itself; assay: native gel or EMSA

Binder | binding result (human Topoisomerase I) | stoichiometry N (native gel or EMSA)
SV40 Large T-antigen (LT), wild type, purified from insect cells (natural protein) MDKVLNREESLQLMDLLGLERSAWGNIPLMRKAYLKKCKEFHPDKGGDEEKMKKMNTLYKKMEDGVKYAHQPDFGGFWDATEIPTYGTDEWEQWWNAFNEENLFCSEEMPSSDDEATADSQHSTPPKKKRKVEDPKDFPSELLSFLSHAVFSNRTLACFAIYTTKEKAALLYKKIMEKYSVTFISRHNSYNHNILFFLTPHRHRVSAINNYAQKLCTFSFLICKGVNKEYLMYSALTRDPFSVIEESLPGGLKEHDFNPEEAEETKQVSWKLVTEYAMETKCDDVLLLLGMYLEFQYSFEMCLKCIKKEQPSHYKYHEKHYANAAIFADSKNQKTICQQAVDTVLAKKRVDSLQLTREQMLTNRFNDLLDRMDIMFGSTGSADIEEWMAGVAWLHCLLPKMDSVVYDFLKCMVYNIPKKRYWLFKGPIDSGKTTLAAALLELCGGKALNVNLPLDRLNFELGVAIDQFLVVFEDVKGTGGESRDLPSGQGINNLDNLRDYLDGSVKVNLEKKHLNKRTQIFPPGIVTMNEYSVPKTLQARFVKQIDFRPKDYLKHCLERSEFLLEKRIIQSGIALLLMLIWYRPVAEFAQSIQSRIVEWKERLDKEFSLSVYQKMKFNVAMGIGVLDWLRNSDDDDEDSQENADKNEDGGEKNMEDSGHETGIDSQSQGSFQAPQSSQSVHDHNQPYHICRGFTCFKKPPTPPPEPET | binds | –
SV40 Large T-antigen T518D (phosphomimetic mutant), purified from insect cells (natural protein) MDKVLNREESLQLMDLLGLERSAWGNIPLMRKAYLKKCKEFHPDKGGDEEKMKKMNTLYKKMEDGVKYAHQPDFGGFWDATEIPTYGTDEWEQWWNAFNEENLFCSEEMPSSDDEATADSQHSTPPKKKRKVEDPKDFPSELLSFLSHAVFSNRTLACFAIYTTKEKAALLYKKIMEKYSVTFISRHNSYNHNILFFLTPHRHRVSAINNYAQKLCTFSFLICKGVNKEYLMYSALTRDPFSVIEESLPGGLKEHDFNPEEAEETKQVSWKLVTEYAMETKCDDVLLLLGMYLEFQYSFEMCLKCIKKEQPSHYKYHEKHYANAAIFADSKNQKTICQQAVDTVLAKKRVDSLQLTREQMLTNRFNDLLDRMDIMFGSTGSADIEEWMAGVAWLHCLLPKMDSVVYDFLKCMVYNIPKKRYWLFKGPIDSGKTTLAAALLELCGGKALNVNLPLDRLNFELGVAIDQFLVVFEDVKGTGGESRDLPSGQGINNLDNLRDYLDGSVKVNLEKKHLNKRDQIFPPGIVTMNEYSVPKTLQARFVKQIDFRPKDYLKHCLERSEFLLEKRIIQSGIALLLMLIWYRPVAEFAQSIQSRIVEWKERLDKEFSLSVYQKMKFNVAMGIGVLDWLRNSDDDDEDSQENADKNEDGGEKNMEDSGHETGIDSQSQGSFQAPQSSQSVHDHNQPYHICRGFTCFKKPPTPPPEPET | binds | 6
